Entries after “also recorded” stand apart in the source; their conditions may differ.
B1: SSL-2: Botryococcus braunii race B squalene synthase-like 2 enzyme; bacterial form is truncated SSL-2-tr2 (protein)
chain: MVKLVEVLQHPDEIVPILQMLHKTYRAKRSYKDPGLAFCYGMLQRVSRSFSVVIQQLPDELRHPICVFYLILRALDTVEDDMNLPNEVKIPLLRTFHEHLFDRSWKLKCGYGPYVDLMENYPLVTDVFLTLSPGAQEVIRDSTRRMGNGMADFIGKDEVHSVAEYDLYCHYVAGLVGSAVAKIFVDSGLEKENLVAEVDLANNMGQFLQKTNVIRDYLEDINEEPAPRMFWPREIWGKYAQELADFKDPANEKAAVQCLNHMVTDALRHCEIGLNVIPLLQNIGILRSCLIPEVMGLRTLTLCYNNPQVFRGVVKMRRGETAKLFMSIYDKRSFYQTYLRLANELEAKCKGEASGDPMVATTLKHVHGIQKSCKAALSSKELLAKSGSALTDDPAIRLLLLVGVVAYFAYAFNLGDVRGEHGVRALGSILDLSQKGLAVASVALLLLVLLARSRLPLLTSASSKQ
B2: Botryococcus braunii race B squalene synthase-like 1 (SSL-1), wild type, hexa-histidine tagged, SEQ ID NO: 2 (Botryococcus braunii) (protein)
chain: MTMHQDHGVMKDLVKHPNEFPYLLQLAATTYGSPAAPIPKEPDRAFCYNTLHTVSKGFPRFVMRLPQELQDPICIFYLLLRALDTVEDDMNLKSETKISLLRVFHEHCSDRNWSMKSDYGIYADLMERFPLVVSVLEKLPPATQQTFRENVKYMGNGMADFIDKQILTVDEYDLYCHYVAGSCGIAVTKVIVQFNLATPEADSYDFSNSLGLLLQKANIITDYNEDINEEPRPRMFWPQEIWGKYAEKLADFNEPENIDTAVKCLNHMVTDAMRHIEPSLKGMVYFTDKTVFRALALLLVTAFGHLSTLYNNPNVFKEKVRQRKGRIARLVMSSRNVPGLFRTCLKLANNFESRCKQETANDPTVAMTIKRLQSIQATCRDGLAKYDTPSGLKSFCAAPTPTK

Key:
[1] = Purified bacterial-expressed enzymes incubated with FPP, products by GC-MS or TLC/scintillation counting; type: biochemical; details: for squalene or botryococcene biosynthesis by purified enzyme in vitro: FPP as substrate, enzyme assayed alone
From the text: (§1) FIG. 6 depicts the functional characterization of the squalene synthase-like genes of Botryococcus braunii race B. The squalene synthase-like genes, SSL-1, SSL-2 and SSL-3, were expressed in yeast separately (SSL-1 (B), SSL-2(C) or SSL-3(D)) or in combinations (SSL-1+SSL-2(E), SSL-1+SSL-3(F)) and the hexane extractable metabolites profiled by GC-MS. The chemical profile of yeast not engineered with any gene constructs serves as the background control (A). […] Data (J) represents mean±S.E.M. obtained from three independent experiments (n=3). The chromatograms (A-I) are also annotated for the elution behavior of botryococcene (1), squalene (2), presqualene alcohol (3) and bisfarnesyl ether (4).
The recombinant vectors were transformed into E. coli strain BL21(DE3) according to the manufacturer's recommendations (Novagen). The selected lines were grown with kanamycin selection at 37° C. with vigorous shaking until the cultures reached an optical density of ˜0.8 (OD600 nm), then expression of the corresponding SSL gene induced by addition of 0.5 mM isopropylthio-β-D-galactoside (IPTG) and the cultures incubate for an additional 3 to 20 h with shaking at room temperature. One hundred ml of the culture was subject to centrifugation at 4,000 g for 10 min, the pelleted cells resuspended in 10 ml of lysis buffer containing 50 mM NaH2PO4, pH 7.8, 300 mM NaCl, 10 mM imidazole, 1 mM MgCl2, 1 mM PMSF, 1% glycerol (v/v), then sonicated 4× for 10 sec with a microprobe sonicator at 60% maximum power. The samples were cooled on ice for 2 min between sonication treatments. The sonicate was centrifuged at 16,000 g for 10 min at 4° C. and the supernatant used for purification of the hexa-histidine tagged enzymes.
Purification of the bacterial expressed enzymes was afforded by the amino-terminal hexa-histidine tag using His-Select Cobalt affinity gel (Sigma) columns according the manufacturer's recommendations. Recovery of proteins with the expected molecular sizes was determined by SDS-PAGE. The purified protein fractions were concentrated using Amicon Ultra (0.5 ml, 10K) centrifugation filter units and stored in 300 mM NaCl, 20 mM Tris-HCl pH 7.5, 5 mM dithiothreitol, 2 mM MgCL2, 50% glycerol (v/v) at −20° C. for 2-3 weeks without noticeable loss of activity.
Typical enzyme assays were initiated by mixing aliquots of purified enzyme with 50 mM Mops, pH 7.3, 20 mM MgCl2, 2.5 mM 2-mercaptoethanol, 10 μM [1-^3H]-FPP (˜2×10^5 dpm total), and 2 mM NADPH in total reaction volume of 50 μl. Reactions were incubated at 37° C. for 1 h and then extracted with 100 μl n-hexane or 100 ul MTBE. Forty μl of the n-hexane or MTBE extract was then spotted onto silica TLC plates with authentic standards of botryococcene and squalene and developed with n-hexane, or standards of bisfarnesyl ether and developed with n-hexane:MTBE, 25:1. The standards were visualized with iodine vapors and TLC zones corresponding to the standards were scrapped and analyzed by scintillation spectrometry. If Botryococcus lysate was added to enzyme assays, typically 5 μl of lysate (corresponding to 10 μg total protein) prepared from B. braunii cells according to Okada et al. (1) was added. […] Extracts were resuspended in 50 μl hexane and an aliquot analyzed by GC-MS with a Varian CP-3800 GC coupled to a Varian Saturn 2200 MS/MS (Varian Medical Systems) using a Supelco SLB-5 ms fused silica capillary column (30 m×0.25 mm×0.25 μM film thickness, Supelco). […]

TN7 yeast line = experiment: Expression of SSL genes in TN7 yeast line, hexane extractable metabolites by GC-MS; type: cell-based
From the text: as §1
FIG. 10 includes a comparison of botryococcene production in yeast engineered with different configurations of SSL-1 and SSL-3. Yeast line TN7 was engineered with the SSL-1 and SSL-3 genes on separate plasmids (squares), with gene fusions (SSL-1 fused to SSL-3 via a triplet repeat of GGSG (triangles), or vice versa (diamonds)), or with 63 or 71 amino acids of the carboxy terminus of the Botryococcus squalene synthase, sequences containing a membrane spanning domain, appended to the carboxy termini of the SSL-1 and SSL-3 enzymes, respectively (circles). The data represents mean±S.E.M.
The various recombinant yeast expression vectors were introduced into the TN7 yeast line via lithium acetate transformation, followed by selection for uracil and leucine auoxtrophic growth (Takahashi, et al. (2007)). […] Individual colonies of TN7 and the various TN7-transformants were subsequently grown in 25 ml of YPDE (nutrient rich) or Yeast Synthetic Drop-out medium (selection) for the indicated time at 25° C. before analyzing the cultures for production of novel triterpene components. In brief, 1 ml aliquots of the culture were combined with 1 ml of acetone, vigorously mixed, and incubated at room temperature for 10 min. One ml of hexane was added and mixed vigorously for 60 sec. […] The dried extract was resuspended in 50-500 μl of n-hexane and a 1 μl aliquot analyzed by GC-MS as described above. […]

[2] = SSL-2 incubated by itself, NADPH-dependent

| Molecule | squalene or botryococcene biosynthesis by purified enzyme in vitro [1] | bisfarnesyl ether share of products [1, 2] [%] | squalene share of products [1, 2] [%] | squalene accumulating, share of the total (TN7 yeast line; expressed in yeast) | products accumulating in yeast (TN7 yeast line; gene expressed separately in yeast) |
| --- | --- | --- | --- | --- | --- |
| B1 | neither bacterial-expressed, purified enzymes exhibited any botryococcene biosynthesis; also recorded: low capacity for squalene biosynthesis | ~90 | ~10 | ~10 % of the total |  |
| B2 | did not exhibit either squalene nor botryococcene biosynthesis |  |  |  | accumulated to significant levels |

From patent publication US8822187B1, “Polypeptides, nucleic acid molecules, and methods for synthesis of triterpenes” (University of Kentucky Research Foundation, priority 2011, dated 2014)
